Paper PMC9636575, “MqsR is a noncanonical microbial RNase toxin that is inhibited by antitoxin MqsA via steric blockage of substrate binding” (The Journal of Biological Chemistry, 2022)

Target: T1, MqsR (E. coli, UniProt Q46865 1-98)
T1 construct: also called MqsR toxin; 15N-labeled MqsR
Assay: NMR titration; unlabeled MqsA(1-76) titrated into 15N-labeled MqsR (50 uM); 2D [1H,15N] HSQC; 298 K; 50 mM NaCl, 20 mM Na phosphate pH 6.5, 0.5 mM TCEP, 10% D2O
Conditions: both partners purified

T1 sequence (Q46865 whole entry): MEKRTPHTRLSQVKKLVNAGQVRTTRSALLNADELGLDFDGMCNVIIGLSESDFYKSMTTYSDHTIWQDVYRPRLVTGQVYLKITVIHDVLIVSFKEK

B1: N-terminal toxin-binding domain of MqsA (residues 1-76) (domain or fragment)
chain: MKCPVCHQGEMVSGIKDIPYTFRGRKTVLKGIHGLYCVHCEESIMNKEESDAFMAQVKAFRASVNAETVAPEFIVK
notes: also called MqsA_(1-76); unlabeled MqsA_(1-76)
Does B1 bind?
Result: binds
